The target of the assay is T1, Abeta peptide (40-amino acid Abeta peptide, SEQ ID NO: 1), biotinylated (human, N-terminal biotin or C-terminal lysine-linked biotin, separated from the peptide by a PEG6 linker).
T1 construct: Synthesized by Genscript; also called amyloid beta; test peptide
The experiment in a line: BLI (Octet HTX), biotinylated Abeta on streptavidin sensors, 1 uM VHH, 1:1 fit. On the procedure: Binding affinity was measured using Biolayer Interferometry (BLI) with a ForteBio Octet HTX instrument. Biotinylated antigen was loaded onto streptavidin biosensors at a concentration of 100 nM in kinetics buffer (PBS+1% BSA). The binding experiments were performed with the following steps: 1) baseline in kinetics buffer for 30 seconds, 2) loading of antigen for 180 seconds, to achieve a loading response of at least 1 nm, 3) baseline for 60 seconds, 4) association of 1 μM VHH for 300 seconds, and 5) dissociation into kinetics buffer for 180 seconds. Curves were fit to a 1:1 binding model using the ForteBio software. A negative control was included in all plates, which was un-transfected mammalian cells subjected to the same purification process, to account for the effect of any carryover protein contaminants from cell culture.
(BLI is a label-free optical method that tracks binding on a fibre tip over time.)

Substitutions are numbered along the chain they refer to.

T1 sequence (peptide, as listed by the source): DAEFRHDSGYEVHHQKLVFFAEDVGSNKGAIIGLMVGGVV

B1: vhhLib01-49 (VHH)
VHH: QVQLVESGGGLVQPGGSLRLSCAASGSIFSHNTMGWYRQAPGKQRELVAAINSGGSTNYADSVKGRFTISRDNAKNTVYLQMNSLKPEDTAVYYCARYIQTYTWGYFDYWGQGTLVTVSS
notes: The entry as printed includes HHHHHH
Consider B1, for which binding was put at a Kd of 116 nM, the koff (commonly the first-order rate constant of dissociation) is 0.000734 s⁻¹ and the kon (commonly the second-order rate constant of association) was found to be 6320 M⁻¹ s⁻¹.

B2: vhhLib01-48 (VHH)
VHH: QVQLVESGGGLVQPGGSLRLSCAASGSIFSANIMGWYRQAPGKQRELVAAIVSGGYTNYADSVKGRFTISRDNAKNTVYLQMNSLKPEDTAVYYCARDQDAFDHVGQYFDHWGQGTLVTVSS
notes: as for B1
With B2, the affinity, expressed as Kd, was 153 nM; the koff turned out to be 0.00333 s⁻¹; the on-rate (kon) was 21800 M⁻¹ s⁻¹.

B3: vhhLib01-34 (VHH)
VHH: QVQLVESGGGLVQPGGSLRLSCAASGSIFSVNRMGWYRQAPGKQRELVAAIISGGATNYADSVKGRFTISRDNAKNTVYLQMNSLKPEDTAVYYCARRPAPNGRYHSWYAFDYWGQGTLVTVSS
notes: as for B1
With B3, binding was put at a Kd of 367 nM, the koff was found to be 0.00268 s⁻¹ and the kon worked out at 7320 M⁻¹ s⁻¹.

B4: vhhLib01-75 (VHH)
VHH: QVQLVESGGGLVQPGGSLRLSCAASGSIFSSNRMGWYRQAPGKQRELVAAIFSGGHTNYADSVKGRFTISRDNAKNTVYLQMNSLKPEDTAVYYCARPVDWSGPFDIWGQGTLVTVSS
notes: as for B1
As to B4, binding was characterised by a dissociation constant (Kd) of 185 nM, the koff is 0.00324 s⁻¹ and the kon is 17500 M⁻¹ s⁻¹.

B5: vhhLib05-25 (VHH)
VHH: EVQLLESGGGLVQPGGSLRLSCAASGFTFSSYAMSWVRQAPGKQREWVSAISGSGGSTYYADSVKGRFTISRDNSKNTLYLQMNSLRAEDTAVYYCARHRQADGITYFDIWGQGTLVTVSS
notes: The entry as printed includes a doubled TLVTVSS and HHHHHH
On to B5, for which binding was put at a Kd of 23.9 nM, the koff was determined as 0.000337 s⁻¹ and the kon was 14100 M⁻¹ s⁻¹.

B6: vhhLib05-14 (VHH)
VHH: B5 VHH with H99L, R100S, Q101I, A102V, G104V, I105V, Y107V, I110V
notes: as for B5
Turning to B6, the Kd (in general, the constant that tells how readily two partners part at equilibrium) was determined as 39.9 nM; the koff is 0.000443 s⁻¹; the kon was 11100 M⁻¹ s⁻¹.

B7: vhhLib05-5 (VHH)
VHH: B5 VHH with H99L, R100D, Q101Y, A102T, T106N, I110Y
notes: as for B5
Regarding B7, binding was characterised by a dissociation constant (Kd) of 189 nM, the koff turned out to be 0.000882 s⁻¹ and the kon was 4660 M⁻¹ s⁻¹.

B8: vhhLib05-83 (VHH)
VHH: EVQLLESGGGLVQPGGSLRLSCAASGFTFSNYAMSWVRQAPGKQREWVSAISGSGGSTYYADSVKGRFTISRDNSKNTLYLQMNSLRAEDTAVYYCARLFLQQADGLYYYYAFDPWGQGTPVTVSS
notes: The entry as printed includes a doubled TLVTVSS-like stretch and HHHHHH
The molecule B8 came in with a Kd of 292 nM, a koff of 0.00112 s⁻¹ and a kon of 3830 M⁻¹ s⁻¹.

B9: vhhLib02-64 (VHH)
VHH: EVQLVESGGGLVQPGGSLRLSCAASGFTFSGYFMSWYRQAPGKQRELVSVINSGGSTYYADSVKGRFTISRDNSKNTLYLQMNSLRAEDTAVYYCARGRVATGGGYGFVHYFDVWGQGTLVTVSS
notes: as for B1
The molecule B9 displayed a Kd of 210 nM, a koff of 0.0029 s⁻¹ and an on-rate constant (kon) of 13800 M⁻¹ s⁻¹.

B10: vhhLib02-21 (VHH)
VHH: EVQLVESGGGLVQPGGSLRLSCAASGFTFSLYTMSWYRQAPGKQRELVSAISSGGSTYYADSVKGRFTISRDNSKNTLYLQMNSLRAEDTAVYYCARYDYSWWYFDLWGQGTLVTVSS
notes: as for B1
The molecule B10 displayed a Kd of 244 nM, a koff of 0.000724 s⁻¹ and a kon of 2970 M⁻¹ s⁻¹.

B11: vhhLib02-53 (VHH)
VHH: EVQLVESGGGLVQPGGSLRLSCAASGFTFSRYLMSWYRQAPGKQRELVGAIASGGVTYYADSVKGRFTISRDNSKNTLYLQMNSLRAEDTAVYYCARGNPSERLYYYFDYWGQGTLVTVSS
notes: The entry as printed includes HHHHHH; also called 06BHK
B11 gave a Kd of 42.6 nM, a koff of 0.000447 s⁻¹ and a kon of 10500 M⁻¹ s⁻¹.

B12: vhhLib05-8 (VHH)
VHH: EVQLLESGGGLVQPGGSLRLSCAASGFTFSSYAMSWVRQAPGKQREWVSAISGSGGRTYYADSVKGRFTISRDNSKNTLYLQMNSLRAEDTAVYYCARHSIPVDGIVAFDHWGQGTLVTVSS
notes: The entry as printed includes a doubled TLVTVSS and HHHHHH; also called 13BHK
B12: the dissociation constant (Kd) stood at 25.4 nM, the off-rate (koff) was determined as 0.000269 s⁻¹ and the kon stood at 10600 M⁻¹ s⁻¹.

B13: vhhLib05-10 (VHH)
VHH: B12 VHH with R57S, H99V, S100V, I101K, P102V, V103D, G105I, I106V, V107H, H111I
notes: as for B5
Turning to B13, the Kd was found to be 176 nM, the koff is 0.00127 s⁻¹ and the kon stood at 7170 M⁻¹ s⁻¹.

B14: vhhLib02-26 (VHH)
VHH: EVQLVESGGGLVQPGGSLRLSCAASGFTFSAYIMSWYRQAPGKQRELVGAIVSGGLTYYADSVKGRFTISRDNSKNTLYLQMNSLRAEDTAVYYCARHWRWYDSNLVFDLWGQGTLVTVSS
notes: as for B1
Take B14: binding was put at a Kd of 249 nM, the koff was determined as 0.0137 s⁻¹ and the kon worked out at 55000 M⁻¹ s⁻¹.

B15: vhhLib02-93 (VHH)
VHH: EVQLVESGGGLVQPGGSLRLSCAASGFTFSDYHMSWYRQAPGKQREPVSVINSGGYTYYADSVKGRFTISRDNSKNTLYLQMNSLRAEDTAVYYCARAQAAHYLYGYFDIWGQGTLVTVSS
notes: as for B1
B15 displayed a Kd of 469 nM, a koff of 0.00314 s⁻¹ and a kon of 6700 M⁻¹ s⁻¹.

B16: vhhLib01-86 (VHH)
VHH: QVQLVESGGGLVQPGGSLRLSCAASGSIFSANHMGWYRQAPGKQRELVAAILSGGVTNYADSVKGRFTISRDNAKNTVYLQMNSLKPEDTAVYYCARGQVDTKYGYYYFDSWGQGTLVTVSS
notes: The entry as printed includes a doubled TLVTVSS and HHHHHH; also called vhbLib01-86
B16 showed a Kd of 430 nM, a dissociation rate constant (koff) of 0.0033 s⁻¹ and a kon of 7670 M⁻¹ s⁻¹.

B17: vhhLib01-3 (VHH)
VHH: QVQLVESGGGLVQPGGSLRLSCAASGSIFSFNLMGWYRQAPGKQRELVAAINSGGSTNYADSVKGRFTISRDNAKNTVYLQMNSLKPEDTAVYYCARDYTVYVSYYDGRFDYWGQGTLVTVSS
notes: as for B1
B17: the Kd was 239 nM, the koff was determined as 0.00353 s⁻¹ and the kon turned out to be 14800 M⁻¹ s⁻¹.

B18: vhhLib05-21 (VHH)
VHH: EVQLLESGGGLVQPGGSLRLSCAASGFTFSNYAMSWVRQAPGKQREWVSVISGNGSSTYYADSVKGRFTISRDNSKNTLYLQMNSLRAEDTAVYYCARLVQLPWVPISAFDVWGQGTLVTVSS
notes: The entry as printed includes a doubled TLVTVSS and HHHHHH; also called 16BHK
B18 returned a Kd of 104 nM, an off-rate constant (koff) of 0.00111 s⁻¹ and a kon of 10700 M⁻¹ s⁻¹.

B19: vhhLib05-33 (VHH)
VHH: EVQLLESGGGLVQPGGSLRLSCAASGFTFSSYAMSWVRQAPGKQREWVSAISGSGGSTYYADSVKGRFTISRDNSKNTLYLQMNSLRAEDTAVYYCARLQGVQSDEVYYNYFDVWGQGTLVTVSS
notes: The entry as printed includes a doubled TLVTVSS and HHHHHH; also called vhbLib05-33
B19 showed a dissociation constant (Kd) of 633 nM, a koff of 0.00297 s⁻¹ and a kon of 4680 M⁻¹ s⁻¹.

B20: vhhLib05-78 (VHH)
VHH: B19 VHH with S35T, Q100A, G101T, V102H, Q103V, S104D, D105N, E106G, V107L, Y108G
notes: as for B5
Molecule B20 came in with a Kd of 214 nM, a koff of 0.00133 s⁻¹ and an association rate constant (kon) of 6200 M⁻¹ s⁻¹.

B21: vhhLib05-28 (VHH)
VHH: B19 VHH with S25A, Q100S, G101H, V102N, Q103S, S104Q, D105G, E106T, Y108V, V114I
notes: as for B5
Molecule B21 returned a Kd of 114 nM, a koff of 0.000725 s⁻¹ and a kon of 6370 M⁻¹ s⁻¹.

B22: vhhLib05-49 (VHH)
VHH: EVQLLESGGGLVQPGGSLRLSCAASGFTFSSYAMSWVRQAPGKQREWVSAISGSGGSTYYADSVKGRFTISRDNSKNTLYLQMNSLRAEDTAVYYCARDTNQPYHGRYVYTYDFDVWGQGTLVTVSS
notes: also called 20BHK
Molecule B22 had a dissociation constant (Kd) of 5.3 nM, a koff of 6.73e-05 s⁻¹ and a kon of 12600 M⁻¹ s⁻¹.

B23: vhhLib01-2 (VHH)
VHH: QVQLVESGGGLVQPGGSLRLSCAASGSIFSANHMGWYRQAPGKQRELVAAISSGGLTNYADSVKGRFTISRDNAKNTVYLQMNSLKPEDTAVYYCARHQTKIYNLHYYYFDYWGQGTLVTVSS
notes: as for B1
B23 came in with a Kd of 212 nM, an off-rate (koff) of 0.00632 s⁻¹ and a kon of 29800 M⁻¹ s⁻¹.

B24: vhhLib01-58 (VHH)
VHH: QVQLVESGGGLVQPGGSLRLSCAASGSIFSPNHMGWYRQAPGKQRELVAAIYSGGTTNYADSVKGRFTISRDNAKNTVYLQMNSLKPEDTAVYYCARRTFLRGWSGYLPWFDVWGQGTLVTVSS
notes: as for B1
On to B24, for which the equilibrium dissociation constant (Kd) came to 264 nM, the koff is 0.0045 s⁻¹ and the kon is 17000 M⁻¹ s⁻¹.

B25: vhhLib02-37 (VHH)
VHH: EVQLVESGGGLVQPGGSLRLSCAASGFTFSDYVMSWYRQAPGKQRELVSAIISGEDTYYADSVKGRFTISRDNSKNTLYLQMNSLRAEDTAVYYCARYVHKSTWYYFDHWGQGTLVTVSS
notes: The entry as printed includes HHHHHH; also called vhbLib02-37
With B25, the Kd is 328 nM, the koff is 0.00105 s⁻¹ and the kon worked out at 3210 M⁻¹ s⁻¹.

B26: vhhLib02-91 (VHH)
VHH: EVQLVESGGGLVQPGGSLRLSCAASGFTVSDYHMSWYRQAPGKQRELVSVILSGGRTYYADSVKGRFTISRDNSKNTLYLQMNSLRAEDTAVYYCARADAIFPWFDVWGQGTLVTVSS
notes: The entry as printed includes HHHHHH; also called 09BHK
B26 returned a Kd of 43.1 nM, an off-rate (koff) of 0.00046 s⁻¹ and a kon of 10700 M⁻¹ s⁻¹.

For the origin of these results see patent US20230365667A1 (Merck Sharp & Dohme, published 2023).
